Test results reported in the nanobody polyreactivity screen of Harvey et al. (2022).

Experiment: yeast display, Sf9 membrane polyspecificity reagent, FACS + sequencing; frameworks hold sequencing errors
How it was run: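 A nanobody's polyreactivity label depends on the gate it was sorted from. Yeast display cells were stained with 10% biotinylated, detergent-solubilized Sf9 membrane reagent for 1 hour at 4 °C, enriched on streptavidin microbeads and sorted by FACS. The low and high (top ~1%) gates were set on anti-HA fluorescence for expression and streptavidin fluorescence for reagent binding.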

Sequence	polyreactivity (PSR sort gate)
QVQLVESGGGLVQAGLTLRLSCAASGRIFYPYAMVWYRQAPGKERELVAYNTRSGGSTRYADSVKGRFTISRDNAKNTLYLQMNSLITEDTAVDYCAARTWGRRSSSWGGYYWGQGTQVTVSS	high polyreactivity
QVQLVESGGGLVQAGRNLRLSCAASGRTFYNNVMGWYRQAPGKERELVAAIDWNDGSTYYADSVKGRFTISRDKAKNTVFLQMNSLKPEDTAVYYCAADAYGYGGDSWGQGTQVTVSS	low polyreactivity
QVQLVESGGGLVQAGRSHRLSCAASGIIFYKYAMGWYRQAPVKERELVAAISGTGGSTYYADSVKGRFTISRDNAKNTVYLQMNSVTAEDPAVYYCAATHYSFSWGYDYWGQGTQGTVSS	high polyreactivity
QVQLVESGGGLVQAGRSIRLSCAASGSTFAKYAMGWYRQAPAKERELVAAISSSGSRTYYADSVKGRFTISRDYAKNTVYLQMNILKTEDTAVYYCAALIVKPGGRVYYGGQGTQVTVSS	high polyreactivity
QVQLVESGGGLVQAGRSLRLICAASGRTFVYYAMGWYRPAPGKERELVAAITWSGGRTYYADSVKGRFTISRDNAKNTVYLQMNSLKQEDTAVYYCNRDQWPWESGYAYNYWGQGTQVTVSS	low polyreactivity
QVQLVESGGGLVQAGRSLRLLSAASGSSIYFNGMGWYRQAPGKERELVAAITSGGSTDYADSVKGRFTISRDNEKNSVYLLMYSLKPEDTAVYYCNVQNGDRQITGYDYWGLGTQVTVSS	low polyreactivity
QVQLVESGGGLVQAGRSLRLSCAASGFPFYQYAMGWYRQAPGQERELVAAITWSRGDTYYADSVKGRFTISRDNAKNTVYLQMNSLKPEDSAVFNCNADDRPRGPYYDSFDYRGDYWGQGTQVTVSS	low polyreactivity
QVQLVESGGGLVQAGRSLRLSCAASGLIFVNYAMGWYRPAPGHERELVAASTRSGGRTYYADSVKGRFTISRDNAKNRRYLHMNSLKPVDTAVYYCAAYVRSATLRVNYGYWGQGTQVTVSS	high polyreactivity
QVQLVESGGGLVQAGRSLRLSCAASGLISRRNAMGWYRQAPGKQRELVAAISTGSSTNYADSVKGRFTISRDNAKNTVYLQMNSLKPEDTAVYYCASTQYWWSTLGIRDDYWGQGTQVTVSS	low polyreactivity
QVQLVESGGGLVQAGRSLRLSCAASGLTFKWYAMGWYRQAPGKERELVAAISRDGSTYYADSVKGRFTISRDNAKNTVYLQMNSLKPEDTAVYDCAADIWPSSLLADEYDYWGQGTQVTVSS	high polyreactivity
QVQLVESGGGLVQAGRSLRLSCAASGRIFGWYAMGWYRQAPGKERELVAAIRWSGGSTYADSVKGRFTISRDNAKNTVYLQMNSLKPEDTAVYYCAALQRTGPYAGSSGYWGQGTQVTVSS	high polyreactivity
QVQLVESGGGLVQAGRSLRLSCAASGRIFKYNAMGWYRQAPGKERELVAVITSGGSTYYADSEKGRFTISRDNAMNTDSLQKNSLKQVDTAVYYCNSPYARYYTRYSAYDYWGQGTQVTVSS	low polyreactivity
QVQLVESGGGLVQAGRSLRLSCAASGRIFRVNAMGWYRQAPRKERQLVAAISVRGGSTYYADSVKGRFTISRDNAKNTVYLQMNSLKPEDTAVYYCAAPLVYFTPRYDYWGQGTQVTVSS	high polyreactivity
QVQLVESGGGLVQAGRSLRLSCAASGRIFYPYAMGWYRQAPGKERELVAAIRWSSGNTRYADSVKGRFTISRDNAKNTVYLQMNSLKPEDTAVYYCAADTTVFFYRYDYWGQGTQVTVSS	high polyreactivity
QVQLVESGGGLVQAGRSLRLSCAASGSIFTYYAMGWYRQGPGQERELVAAINWSGGGTYYADSLKGRFTISRDNAKINVYLQMNSLKPEDTAVYYCNALRKTYRLDYWGQGTQVTLSS	high polyreactivity
QVQLVESGGGLVQAGRSLRLSCAASGSTFGSNAMGWYRLAPGKERELVAAITRRGGSTYYADSEKGRFTISRDNAKNTVYLQMNSLKPEDTAVYYCAAQIHPRRDYSAFDYWGQGTQVTVSS	low polyreactivity
QVQLVESGGGLVQAGRSLRLSCAASGSTFRQNAMGWYRQAPGKERELVAGITFSSGSTYYADSVKGRFTISRDIAKNTLYLQMNSLKPEDTAVYYCAVRNASKNRKYYYWGQGTQVTVSS	high polyreactivity
QVQLVESGGGLVQAGRSLRLSCAASGSTFWPNAMGWYRPAPGKERELVAAITSGGRTKYADSVKGRFTISRDNAKNTVYLQMNSLKPEDTAFYYCAKRKGDRGAWIHAYGWEDVDYWGQGTQVTVSS	low polyreactivity
QVQLVESGGGLVQAGRSLRLSCAASGSTIVGYAIGWYRQAPGKDRELVAAISGSGTSTYYADSVKGRFTISRDNAKNTVYLHMISMKPEHTAVYYCIADPIFVYSSYNFWGQGTQVTVSS	low polyreactivity
QVQLVESGGGLVQAGRSLRLSCAASGTTFVIYDMGWSRQAPGKERDLVAGNSYSGGSTYYADSVKGRFTISRDNAKNTVYLQMNSLKPEDTAVYYCNAGVLVLLYAYLPSDLEYWGQGTQVTVSS	low polyreactivity
QVQLVESGGGLVQAGRSLRLSCAASGYTFYFYAKGWSRQAPGKDRELVASMTWRGGSPYYADSVKGRFTISRDNAKNTVYLQMNSLKPEETADYYCAKHVYYIYDYWGQGTQVTVSS	low polyreactivity
QVQLVESGGGLVQAGRSLRLSCAPSGLTISSNAMGGYRQAPGKERELVAGISRRGGRTYYADSVKGRFTISRDTAKHTVYLQMNSLKPEDTAVYYCAADRVGNSYDYWGQGTQGTVSS	high polyreactivity

Sequence	polyreactivity (PSR sort gate)
QVQLVESGGGLVQAGRSLRLSCSASGFSFSFYSMGWYRQAPGKERELVAAISQSGGSTYYADSVKGRFIISLDNAKHTVYLQKNSLKPEDTAVYYCNRGLRRHQSDDYWGQGTQVTVSS	high polyreactivity
QVQLVESGGGLVQAGRSLRLTCAASGRIFNPYAMGWYRQAPGKERELVAAISRGGRTYYADSVKGRFTISRDNAKNTVYLQMNSLKPEDTAVYYCNAGRGLREDDYWGQGTQVTVSS	low polyreactivity
QVQLVESGGGLVQAGRSNRLSCAASGSLFPDYTMGWYRQAPGQERELVAGSTWNRGGTYYADSVKGRFTISRDNAKNTVYLQMNILKPEDTAVYYCAAEWSGSRSSGAWGPYNYWGQGSQVTVSS	low polyreactivity
QVQLVESGGGLVQAGRTLRLSCAASGFIFFDNAMGWYRQAPGKERELVAVISSSGTSTYYADAVKGRFTISRDNAKNTVYLQMNSLKPDDTAVYYCNATARTGVYLESDYWGQGTQVTVSS	low polyreactivity
QVQLVESGGGLVQAGRTLRLSCAASGSNFSVYVMGWYRQAPGKEWELVAAISWSDSDTYYADSVKGRFTISRDNATNNVYLLMNSLNPEDTAVYYCAAETFDYHDYIANGSGEYDYWGQGNQVTVSS	high polyreactivity
QVQLVESGGGLVQAGVSLLLSCAASGRTFYANAMGWYSQAPGKEREFVAAISYGTGGTYYADSVKGRFTISRDNAKNTVYLQMNTLKPEDTAVYYCAASLYWGIYGWMGYWGQGTQVTVSS	high polyreactivity
QVQLVESGGGLVQAGVSLRISCAPSGRTFIIYAMGRYRQAPGKERELVADISSGGSTYYADSVKGRFKISRDNAKNTVYLHMNSLKPEDTAVYYCAAQSWYYPIGYDYWGLGTQVTVSS	low polyreactivity
QVQLVESGGGLVQAGVSLRLICAATGSIFWRKTKGWYRQAPGKEREFVAAISTSGSTYYADSVKGRFTISRDNAKNTVYLKMNSLKPEDTAVYYCAADASRGYQREGGYWGQGTQVTVSS	high polyreactivity
QVQLVESGGGLVQAGVSLRLSCAASGFISDWYAMGWYRQAPGNERELVATLDWIGGSTYADSVKGRFTISRDNAKNTVYFQMNSLKPEDTAVYYCAADSFFIAWYGAHYAYDDWGQGTQVTVSS	low polyreactivity
QVQLVESGGGLVQAGVSLRLSCAASGGTFPKYTMGWYRQAPGKERELVAAITSRGTRTYYADSVKARFTISRDNAKNTVYLQMNSLKTEDTAVYYCAAYFDRHRYDYWGQGTQVTVSS	high polyreactivity
QVQLVESGGGLVQAGVSLRLSCAASGITFVNNDMGWYRQAPGKERELVAAISSSGGSTYYADSVKGRFTISRDNAKNTDYLQMNSLKPEDTAVYYCAAPWYNAGRFRYYYWGQGTQVTVSS	high polyreactivity
QVQLVESGGGLVQAGVSLRLSCAASGITIKGNAKGWYRQAPGKERELVAAISRRGGNTYYADSVKGRFTISRDNAKNTVYLQMNSLKPEDTAVYYCAAEYNQSFDYWGQGTQVTVSS	low polyreactivity
QVQLVESGGGLVQAGVSLRLSCAASGNAMGWYRQAPGKERELVAAITYGGTTTYYADSVKGRFTISRDNAKNTVYLQMNSLKPEDTAVYYCAADFVFVATPLRYDYWGQGTQVTVSS	low polyreactivity
QVQLVESGGGLVQAGVSLRLSCAASGNIFRAYAMGWYRQAPGKERELVAAIDTTGGRTYYADSVKGRFTISRDNAKITVYLLMKSLKPEDTAVYYCAVRAPAYPYYRGFDYWGQGSQVTVSS	low polyreactivity
QVQLVESGGGLVQAGVSLRLSCAASGRIFPGYAMGSDRQAPAKERELVAGITWRTARTYYADSVKGRFTISRDNAKNTVYLQMNSLKPEDTAVYYCAAVSDYEGNYWGQGTQVTVSS	high polyreactivity
QVQLVESGGGLVQAGVSLRLSCAASGRTFGYYAMGWYRPAPGKETELVAASTLSGGSTYYADSVKGRFTISRDNAKNTVYLQMNSLKPEYTAVYYCAAKWWHFYPYDYWGQGTQVTVSS	high polyreactivity
QVQLVESGGGLVQAGVSLRLSCAASGRTFRFYAMGWYRQAPGKERELVAAITGSGGSTYYADSVKGRFTISRDNAKNTVYLQMNCLKPEDTAVYYCAASRWREYHASKMDYWGQGTQVTVSS	low polyreactivity
QVQLVESGGGLVQAGVSLRLSCAASGRTFRGYAMGWYRQAPGKERELVAAISSGGSTYYADSVKWRFTISRDNSKNTVYLQMNSLKPEDTAVYYCARAVGNYRTLEFDYWGQGTHVTVSS	low polyreactivity
QVQLVESGGGLVQAGVSLRLSCAASGSIFSYNAMGWYRQAPGKERELVAAISRCSGSTYYADSVKGRFTISRDIAKNTVYLQMNSLKPEDTAVYYCAGRPKTIPSYYLGYHVRFDYWGQGTQVTVSS	low polyreactivity
QVQLVESGGGLVQAGVSLRLSCAASGSTFVSNAMGWYRQAPGKERELVAAISWSGVRTYYADSVKGRITISRDNAKNTVYLQMNSLKPEDTAVYYCSKRIYGSRSSRFNYWGQGTQLTVSS	high polyreactivity
QVQLVESGGGLVQAGVSLRLSCAASGSTFYWYAMGWYRQAPGKERELVAAITYSSGRTYYADSEKGRFTISRDNAKNTVYLQMNSLKPEDTAVYYCGWSALNGYDYWGQGTQVTVSS	high polyreactivity
